From patent US7008780, “Chimeric DNA-binding proteins” (Massachusetts Institute of Technology)

How the values were obtained:
[1] = biological target: GST-ZFHD1 (Zif268 fingers 1-2, GGRR linker, Oct-1 homeodomain) (synthetic chimera (mouse Zif268 / human …, UniProt P08046;P14859 P08046:333-390,P14859:378-439)); experiment: EMSA; 10 mM Hepes pH 7.9, 50 mM KCl, 0.5 mM EDTA, 30 C; apparent Kd; conditions: tags: N-terminal GST (pGEX2T)
[2] = biological target: Oct-1 POU domain (POU-specific domain and homeodomain) (UniProt P14859 P14859:280-438); experiment: as above
Chain of Oct-1 POU domain (POU-specific domain and homeodomain) (P14859 280-438, one chain of several): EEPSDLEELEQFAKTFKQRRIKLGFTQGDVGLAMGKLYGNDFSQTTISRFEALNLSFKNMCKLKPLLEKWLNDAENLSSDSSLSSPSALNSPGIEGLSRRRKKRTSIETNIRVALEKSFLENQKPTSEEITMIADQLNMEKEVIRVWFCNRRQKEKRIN

Zif268 zinc fingers 1-3 [3] = biological target: T1, Zif268 zinc fingers 1-3 (UniProt P08046 P08046:336-416); experiment: EMSA
Zif268 zinc fingers 1-3 [4] = biological target: T1, Zif268 zinc fingers 1-3; experiment: EMSA; 10 mM Hepes pH 7.9, 50 mM KCl, 0.5 mM EDTA, 30 C; apparent Kd

B1: hybrid site probe TAATGATGGGCG (dsDNA)
DNA 1: CCTCGAGGCGCCCATCATTACTAGGTACC
DNA 2: GGTACCTAGTAATGATGGGCGCCTCGAGG
Q: B1 was tested. Which Kd [1] did it give?
A: 0.84 nM

B2: Oct-1 octamer site probe (dsDNA)
DNA 1: CCTCGAGGTCATTTGCATACTAGGTACC
DNA 2: GGTACCTAGTATGCAAATGACCTCGAGG
Q: For B2, which Kd [2] is on record?
A: 0.18 nM

B3: hybrid site probe TCATTATGGGCG (dsDNA)
DNA 1: CCTCGAGGTCATTATGGGCGCTAGGTACC
DNA 2: GGTACCTAGCGCCCATAATGACCTCGAGG
Q: Does B3 bind (Zif268 zinc fingers 1-3 [3])?
A: no binding

B4: Zif268 site probe (dsDNA)
DNA 1: CCTCGAGGCGCCCACGCCTAGGTACC
DNA 2: GGTACCTAGGCGTGGGCGCCTCGAGG
Q: B4 was tested. Which Kd (Zif268 zinc fingers 1-3 [4]) did it give?
A: 0.33 nM
